The target in assay [1] is T1, human B7-H5 expressed on cells (CHO transfectants) (UniProt Q9UM44 23-414).
T1 chain: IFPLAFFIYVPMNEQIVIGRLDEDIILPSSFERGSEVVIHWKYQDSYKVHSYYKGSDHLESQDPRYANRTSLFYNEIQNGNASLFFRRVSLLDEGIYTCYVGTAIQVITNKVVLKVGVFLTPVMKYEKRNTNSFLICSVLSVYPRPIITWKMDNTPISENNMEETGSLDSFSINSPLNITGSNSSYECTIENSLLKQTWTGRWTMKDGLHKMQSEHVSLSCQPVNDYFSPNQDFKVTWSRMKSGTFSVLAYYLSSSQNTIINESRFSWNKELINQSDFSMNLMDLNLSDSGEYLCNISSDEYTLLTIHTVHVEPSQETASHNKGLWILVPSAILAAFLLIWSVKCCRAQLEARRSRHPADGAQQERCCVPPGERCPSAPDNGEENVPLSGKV
Nature of the assay: FACS binding to CHO cells. In general terms: Flow cytometry measures light scatter and fluorescence of single cells or particles in a stream.

Assay [2] addresses T2, human B7-H5 expressed on cells (CHO transfectants) (human, UniProt Q9UM44 23-414).
T2 construct: also called B7-H7; HHLA2
T2 sequence: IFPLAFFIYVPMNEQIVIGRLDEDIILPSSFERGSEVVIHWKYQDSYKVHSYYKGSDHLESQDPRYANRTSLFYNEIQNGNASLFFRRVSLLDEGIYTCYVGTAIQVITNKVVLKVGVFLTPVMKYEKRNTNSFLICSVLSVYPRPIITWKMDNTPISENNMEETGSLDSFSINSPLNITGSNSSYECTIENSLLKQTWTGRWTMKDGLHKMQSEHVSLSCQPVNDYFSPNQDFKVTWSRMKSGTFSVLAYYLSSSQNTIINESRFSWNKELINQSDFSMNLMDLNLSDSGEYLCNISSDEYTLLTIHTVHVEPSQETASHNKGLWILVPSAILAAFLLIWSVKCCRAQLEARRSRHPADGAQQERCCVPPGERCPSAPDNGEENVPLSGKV
The experiment in a line: flow cytometry on CHO transfectants expressing human B7-H5.

Assay [3] concerns the target T2, human B7-H5 expressed on cells (CHO …). Nature of the assay: flow cytometry on CHO cells expressing human B7-H5 (figure legend). The method, then: Human B7-H5 FL CHO transfectants were pre-incubated with control supernatant (Panel A) or recombinant chimeric 2D3 (Panel B) and 18C3 supernatants (Panel C), and subsequently stained with biotinylated CD28HhIg fusion protein.
The human B7-H5-binding antibodies of the present invention (antibodies 2D3 and 18C3) were recombinantly converted to a human IgG4P isotype from their native hamster isotype. CHO transfectants that express human B7-H5 were then incubated in the presence of the recombinant antibodies. […] FIG. 15 compares the affinities of antibodies 2D3 and 18C3 for binding to human B7-H5 as expressed on the surface of CHO cells.

B1: anti-human B7-H5 antibody 2D3 (hybridoma clone 2D3) (antibody, V domains shown)
VH: QVQLQQSGAELVKPGASVKLSCKASGYTFTSHDINWVRQRPELGLEWIGWIFPGDGSTKFNEKFKGKATLTTDKSSSTAYIQLSRLTSEDSAVYFCARNSFYSMDYWGQGTSVTVSS
VL: DIVMSQSPSSLAVSAGEKVTMSCKSSQSLLNSRTRKNQLAWYQQKPGQSPKLLIYWAFIRESGVPDRFTGSGSGTDFTLTISSVQAEDLAVYYCKQSYNLRTFGGGTKLEIK
notes: constant regions are not; also called Anti-Human B7-H5 Clone 2D3; 2D3 mAb
In general, Kd refers to a measure of binding affinity in units of concentration. Low readings indicate a tighter complex, high ones a looser complex. On to B1, for which the Kd in assay [1] was ~2.5 nM. Also, the binding result in assay [2] was “binds”.

B2: recombinant anti-human B7-H5 chimeric antibody 2D3, human IgG4P isotype (antibody, V domains shown)
VH: QVQLQQSGAELVKPGASVKLSCKASGYTFTSHDINWVRQRPELGLEWIGWIFPGDGSTKFNEKFKGKATLTTDKSSSTAYIQLSRLTSEDSAVYFCARNSFYSMDYWGQGTSVTVSS
VL: DIVMSQSPSSLAVSAGEKVTMSCKSSQSLLNSRTRKNQLAWYQQKPGQSPKLLIYWAFIRESGVPDRFTGSGSGTDFTLTISSVQAEDLAVYYCKQSYNLRTFGGGTKLEIK
notes: also called recombinant chimeric 2D3; human IgG4P derivative of 2D3
B2: in assay [3], the binding result is “binds”.

B3: recombinant anti-human B7-H5 chimeric antibody 18C3, human IgG4P isotype (antibody, V domains shown)
VH: QVQLQQSGAELVKPGASVKLSCKASGYTFTSHDINWVRQRPEQGLEWIGWIFPGDGSTKFNEKFKGKATLTTDKSSSTAYIQLSRLTSEDSAVYFCARNSFYSMDYWGQGTSVTVSS
VL: DIVMSQSPSSLAVSAGEKVTMSCKSSQSLLNSRTRKNQLAWYQQKPGQSPKLLIYWASTRESGVPDRFTGSGSGTDFTLTISSVQAEDLAVYYCKQSYNLRTFGGGTKLEIK
notes: also called recombinant chimeric 18C3; human IgG4P derivative of 18C3
With B3, the binding result in assay [3] was “binds”.

B4: anti-human B7-H5 antibody 18C3 (hybridoma clone 18C3) (antibody, V domains shown)
VH: QVQLQQSGAELVKPGASVKLSCKASGYTFTSHDINWVRQRPEQGLEWIGWIFPGDGSTKFNEKFKGKATLTTDKSSSTAYIQLSRLTSEDSAVYFCARNSFYSMDYWGQGTSVTVSS
VL: DIVMSQSPSSLAVSAGEKVTMSCKSSQSLLNSRTRKNQLAWYQQKPGQSPKLLIYWASTRESGVPDRFTGSGSGTDFTLTISSVQAEDLAVYYCKQSYNLRTFGGGTKLEIK
notes: constant regions are not; also called Anti-Human B7-H5 Clone 18C3
As to B4, the equilibrium dissociation constant (Kd) in assay [1] was ~3.8 nM. Further, in assay [2], the binding result was “binds”.

Values taken from US20160096891A1 (AstraZeneca / MedImmune, published 2016).
